The conditions of series [1]: cubic phase; cited from earlier work.
Series [2] is classed as in vitro ADME. From the text:
FIG. 24 presents the cumulative transdermal transport of 1 wt % desmopressin, (□) via water solution, (Δ) via HII mesophase.
The applicability and efficiency the HII mesophase as carriers for a transdermal delivery of desmopressin as model peptide drug was studied. Such delivery was especially relevant since the high hydrophilicity of this peptide was the main reason for its uncontrolled fast release when used without a proper carrier.
In the case of bulk hexagonal mesophase, reduced values of steady-state flux were obtained for the drug and its permeability coefficients through the skin, as compared to a water solution. In other words, the peptide molecules penetrated more easily and freely through the skin from water solution, than from hexagonal phase vehicles. […] The drug probably accumulated in microfissures and in a three-dimensional network of thin threads of the skin.

A short description of series [3]: ATR-FTIR conformational stability of calcitonin in HII mesophase. It is filed as physicochemical. From the text:
In order to overcome this problem, calcitonin was solubilized into the reverse hexagonal mesophase of the invention, as disclosed herein. Transition from random coil, which is characteristic to the stable and soluble state of the peptide to α helix and mainly β-sheet, which are responsible for the unfavorable aggregation, was detected using ATR-FTIR (FIG. 31). It is well documented that calcitonin is extremely unstable in aqueous solutions, which is reflected by a significant decrease of random coil content and simultaneous increase in the concentration of α helix and β-sheet. At room temperature this trend is observed already after ˜2 days. Using the ATR-FTIR technique, the embedment of calcitonin into the aqueous channels of HII mesophase was explored, indicating a significant improvement in the stability of the peptide (FIGS. 32a-c). […] Therefore, the opposite tendency of calcitonin stabilization in the hexagonal phase was detected, as compared to a water solution. Only after 27 days, the peptide stability decreased, as reflected by the decrease of the random coil content.

A short description of series [4]: In vivo oral delivery of calcitonin in rats, plasma calcium levels. The following applies: calcitonin solubilized in hexagonal liquid crystals and/or hexosomes. Further details: species or system Sprague-Dawley rats. The method, then: Male Sprague-Dawley rats (Orient Bio Inc, Korea), 7- to 8-weeks old, weighing 250-310 g, were used in the experiments. Animals were housed under a 12-h light-dark cycle, with food and water ad libitum. All animal handling was in accordance with the guidelines of Animal Care and Use Committee of the Korean Institute of Science and Technology.
The technique of cannulation of the jugular vein and arterial has been developed to allow serial blood sampling from an animal. After anesthesia with 0.4 ml/kg of intraperitoneally administered Rumpun/Zoletile [1:2 (v/v)], an incision was made in the skin just above the right clavicle. After preparation of the jugular vein, it was ligated at the distal side. A cannula filled with heparinized normal saline (10 units/ml) was inserted until the tip reached into the right atrium. Arterial cannulation was performed according to the same methods. […]
Calcium concentration at time zero was normalized as the reference level. […] The calcium level in plasma sample was determined using a commercial Calcium Colorimetric Assay Kit (K380-250, Biovision, Mountain View, Calif., USA). In short, plasma calcium was treated with o-cresolphthalein to form a purple colored complex which was measured at 575 nm. […]

Series [5] can be described thus: ATR-FTIR secondary structure analysis of LSZ (amide I' band) as a function of pH. It is filed as physicochemical. The method, then:
The spectra were recorded with 50 scans, with spectral resolution of 2 cm^−1, at room temperature.

A short description of series [6]: ATR-FTIR secondary structure of LSZ under urea denaturation. It is filed as physicochemical. From the text: The α-helix to β-sheet transition in proteins is highly important for understanding their folding and biological functions. It is recognized that the α→β transition is probably responsible for several conformational diseases, such as Alzheimer disease, where the α-helical forms are normal and the β-sheet forms are amyloidogenic. Urea is an accepted denaturating agent, which may act in several molecular mechanisms. These possible pathways include direct interactions of urea with the protein, indirect effects by decreasing water-water interactions and hydrogen bond strength, and allowing the exposure of nonpolar groups of the protein to the solvent and combinations thereof.
The β-sheet formation was detected by FTIR analysis at 1620 cm^−1 and it was associated with aggregation of the protein, caused by denaturation, in accordance with the literature. In contrast, within the hexagonal mesophase the α-helical conformation stayed intact up to 4M of urea.

The nature of series [7]: ATR-FTIR secondary structure of LSZ as a function of temperature. The format is physicochemical. The method, then:
Proteins in general are known for their low stability at high temperatures.
Further temperature increase confirmed the diverse denaturation mechanism. Up to 73° C., the α-helix and the random coil contents decreased in favor of γ-turn formation.

[8] abbreviates: water solution, after urea denaturation (starting from 2M urea).
The mark [9] stands for this setting: water solution, before the urea-induced decrease.

Here are results for 5 molecules from patent publication US10149824B2, “Reverse hexagonal mesophases (HII) and uses thereof” (YISSUM RESEARCH DEVELOPMENT COMPANY OF THE HEBREW …, priority 2009, dated 2018).

With “cytochrome C: intermediate sized protein released from cubic phase [reference compound]”, in series [1], the “time in which the bulk of the release occurred” value (from here on “time in which the bulk”) was “a week”.

As to `NC(=O)CC[C@@H]1NC(=O)[C@H](Cc2ccccc2)NC(=O)[C@H](Cc2ccc(O)cc2)NC(=O)CCSSC[C@@H](C(=O)N2CCC[C@H]2C(=O)N[C@H](CCCN=C(N)N)C(=O)NCC(N)=O)NC(=O)[C@H](CC(N)=O)NC1=O` [desmopressin], in series [2], the “permeability coefficients through the skin” value is “reduced”, the “release via the HII mesophase” value is recorded as “sustained release” and the steady-state flux result was “reduced”.

For the molecule calcitonin, the “random coil structure content” value in series [3] (in HII mesophase, pH 3 and 5, 27th day) was approximately 100%. Also, the “content of α helix and β-sheet forms as a function of time” value in series [3] (in HII mesophase, pH 3 to 9) is “drastically decreased”. Moreover, the “time after which the peptide stability decreased” value in series [3] (in reverse hexagonal phase) came out at 27 days. For the same molecule, the “time for which sCT conformational stability is maintained” value in series [3] (solubilized within hexagonal mesophases) is “more than 20 days”. For the same molecule, the “plasma levels of calcium” value in series [4] is on record as “significantly reduced”.

For the molecule “LSZ: hydrophilic protein (14.4 KDa) used as model protein solubilized in the HII mesophase”, the “secondary structure on incorporation into hexagonal phase” value in series [5] (HII mesophase, pH 1.5 to 6) is on record as “no modifications”. Further, the “random coil structure content” value is recorded as 0.22 in series [5] (LSZ solution in D2O, pH 1.5) and 0.4 in series [5] (LSZ solution in D2O, pH 11.14). Also, the α-helix content in series [5] (LSZ solution in D2O, pH 1.5) was 0.78; in series [6] (setting [8]) it was 0.21; in series [6] (setting [9]), 0.73; in series [7] (D2O, 60° C.), approximately 0.7; in series [7] (D2O, 65° C.) it was 0.34; in series [7] (LSZ loaded HII mesophase, 60° C.) it was approximately 0.7. This molecule had a α-helix content in series [7] (LSZ loaded HII mesophase, 65° C.) of 0.61. In addition, the “random coil content within HII mesophases compared to D2O” value in series [5] (pH from 6 to 11) is given as “lower”. The “α-helix content within HII mesophases compared to D2O” value in series [5] (pH from 6 to 11) is “considerably higher”. The “β-sheet content within HII mesophase compared to water solution” value in series [6] (urea) is “significantly lower”. In addition, the random coil content in series [6] (setting [8]) is 0.03; in series [6] (setting [9]), 0.27; in series [6] (water solution, urea (comparison with HII)) it was 0.06; in series [6] (within the HII mesophase, urea), 0.18; in series [7] (D2O, 60° C.), approximately 0.3; in series [7] (D2O, 65° C.), 0.62. Besides, the random coil content result in series [7] (LSZ loaded HII mesophase, between 63-65° C.) was “preserved”. The β-sheet content entry in series [6] (water solution, urea denaturation) is “up to 0.69”. The “urea concentration up to which α-helical conformation stayed intact” value in series [6] (within the hexagonal mesophase) was “up to 4 M”. In series [7] (D2O), the “temperature from which LSZ denaturation occurs” value amounted to 63 °C. The γ-turn content is listed as 0.1 in series [7] (LSZ loaded HII mesophase, 63-65° C.) and 0 in series [7] (LSZ loaded HII mesophase, before 63-65° C.). Moreover, the “time in which the bulk” value in series [1] is on record as “a week”.

B1: myoglobin: intermediate sized protein released from cubic phase (protein, UniProt P68082 2-154, looked up)
Myoglobin: GLSDGEWQQVLNVWGKVEADIAGHGQEVLIRLFTGHPETLEKFDKFKHLKTEAEMKASEDLKKHGTVVLTALGGILKKKGHHEAELKPLAQSHATKHKIPIKYLEFISDAIIHVLHSKHPGDFGADAQGAMTKALELFRNDIAAKYKELGFQG
As to B1, the “time in which the bulk” value in series [1] is “a week”.
